Assay [1] concerns the target human B7-H4 expressed on cells (human) (UniProt Q7Z7D3). The assay can be described thus: saturation binding, flow cytometry on 624mel/B7-H4 cells; negative control used as background. (In general: Flow cytometry measures light scatter and fluorescence of single cells or particles in a stream.)
For assay [2] the target is unchanged. The assay can be described thus: flow cytometry on 624mel/B7-H4 cells, negative control antibody; signal subtracted as background from all other points.

Sequence of human B7-H4 expressed on cells (human) (Q7Z7D3 other isoform, or with tags, fused parts or gaps limits assumed): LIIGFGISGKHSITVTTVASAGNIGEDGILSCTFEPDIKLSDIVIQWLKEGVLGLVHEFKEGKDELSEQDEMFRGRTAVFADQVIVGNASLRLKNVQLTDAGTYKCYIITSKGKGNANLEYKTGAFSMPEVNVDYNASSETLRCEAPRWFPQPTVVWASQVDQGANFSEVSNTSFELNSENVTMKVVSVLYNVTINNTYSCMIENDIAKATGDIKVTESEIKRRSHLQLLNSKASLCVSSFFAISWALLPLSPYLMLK

“negative control antibody (anti-PD-1 antibody)”: the average signal (MFI) in assay [1] amounted to 245 MFI. Besides, in assay [2], the MFI (average background signal) amounted to 245 MFI.

(Values after US20150315275A1.)
